We go through one substance from PMC8048298.

Assay [1] has as its target GST-SMARCA4-F4 (aa1009-1314) (human) (UniProt P51532). As to the kind of experiment: ITC; peptide 1 mM in the syringe, protein 100 μM in the cell; 19 injections of 2 μl; PBS; 25 °C; MicroCal ITC-200. Background: Isothermal titration calorimetry measures the heat released or taken up as one component is titrated into another.
Assay [2] deals with Flag-tagged SMARCA4 purified from HCT116 cells (human) (UniProt P51532). Nature of the assay: MST; SMARCA4 protein labelled with NT-647-NHS at 100 nM; peptides 10 nM to 500 μM; PBS pH 7.4, 0.05% Tween-20; 5 min incubation; Monolith NT.115; one-site binding (Kd formula).
Assay [3] addresses GST-SMARCA4-F4 (aa1009-1314) (human) (UniProt P51532). The assay is described as above.

The term Kd denotes the equilibrium constant for the complex coming apart. A high value points to weaker binding.

Consider “histone H4 N-terminal 20 amino acid peptide, Arg3 asymmetrically dimethylated (H4R3me2a), C-terminal biotin (from UniProt P62805 2-21)”, for which the Kd turned out to be 2.41 µM in assay [1], 6.27 µM in assay [2] and 5.36 µM in assay [3].
